To fix the notation:
B1: PD-1 1.5 PD017 2001 (antibody, human IgG4 S228P, kappa)
heavy: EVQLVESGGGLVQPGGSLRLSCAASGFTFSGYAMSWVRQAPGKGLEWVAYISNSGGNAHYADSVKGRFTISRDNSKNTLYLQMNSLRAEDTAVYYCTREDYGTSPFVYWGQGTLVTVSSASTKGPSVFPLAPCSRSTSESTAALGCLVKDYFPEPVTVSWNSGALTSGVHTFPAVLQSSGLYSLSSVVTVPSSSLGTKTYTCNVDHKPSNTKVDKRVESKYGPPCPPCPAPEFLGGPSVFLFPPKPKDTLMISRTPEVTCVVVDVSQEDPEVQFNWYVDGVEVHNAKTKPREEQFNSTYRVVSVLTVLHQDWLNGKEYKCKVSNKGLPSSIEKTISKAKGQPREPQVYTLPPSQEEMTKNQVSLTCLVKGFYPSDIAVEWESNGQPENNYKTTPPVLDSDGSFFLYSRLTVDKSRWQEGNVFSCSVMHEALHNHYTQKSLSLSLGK
light: QGQSGQGTTCNLYQQSSMFCNAGGGSSGGSISSGLLSGRSDNHGGGSDIQLTQSPSSLSASVGDRVTITCRASESVDAYGISFMNWFQQKPGKAPKLLIYAASNQGSGVPSRFSGSGSGTDFTLTISSMQPEDFATYYCQQSKDVPWTFGQGTKLEIKRTVAAPSVFIFPPSDEQLKSGTASVVCLLNNFYPREAKVQWKVDNALQSGNSQESVTEQDSKDSTYSLSSTLTLSKADYEKHKVYACEVTHQGLSSPVTKSFNRGEC
notes: also called PD-17
B2: PD-1 1.5 PD025 2001 (antibody, human IgG4 S228P, kappa)
heavy: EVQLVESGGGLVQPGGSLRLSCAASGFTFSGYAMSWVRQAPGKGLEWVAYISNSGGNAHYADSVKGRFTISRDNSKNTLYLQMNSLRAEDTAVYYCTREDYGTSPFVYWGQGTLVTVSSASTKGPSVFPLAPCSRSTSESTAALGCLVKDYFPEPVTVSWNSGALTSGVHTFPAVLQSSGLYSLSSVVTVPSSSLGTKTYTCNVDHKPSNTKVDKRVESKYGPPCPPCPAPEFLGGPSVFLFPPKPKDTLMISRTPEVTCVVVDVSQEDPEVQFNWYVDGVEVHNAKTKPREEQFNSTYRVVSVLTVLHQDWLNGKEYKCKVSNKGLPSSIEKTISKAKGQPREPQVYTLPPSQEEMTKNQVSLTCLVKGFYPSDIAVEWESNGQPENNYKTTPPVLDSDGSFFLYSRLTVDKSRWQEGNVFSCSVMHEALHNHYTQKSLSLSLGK
light: B1 light with T8S, T9R, N11S, L12V, Q14E, Q15V, M18G, F19L, N21D, A22W
B3: PD-1 1.5 PD026 2001 (antibody, human IgG4 S228P, kappa)
heavy: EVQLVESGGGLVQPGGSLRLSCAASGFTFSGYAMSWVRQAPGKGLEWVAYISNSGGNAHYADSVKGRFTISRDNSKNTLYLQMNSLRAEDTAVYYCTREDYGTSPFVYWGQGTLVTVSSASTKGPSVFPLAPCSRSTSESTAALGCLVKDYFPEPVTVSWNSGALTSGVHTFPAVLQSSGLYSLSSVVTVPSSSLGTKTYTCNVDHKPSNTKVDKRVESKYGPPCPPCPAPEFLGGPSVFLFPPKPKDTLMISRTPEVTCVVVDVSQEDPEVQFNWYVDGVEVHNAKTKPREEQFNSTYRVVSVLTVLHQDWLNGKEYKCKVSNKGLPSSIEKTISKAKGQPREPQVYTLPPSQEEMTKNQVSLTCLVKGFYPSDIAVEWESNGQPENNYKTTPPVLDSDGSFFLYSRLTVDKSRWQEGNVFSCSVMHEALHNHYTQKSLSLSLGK
light: B1 light with T8G, T9M, N11S, L12A, Q14A, Q15Y, M18K, F19L, N21T, A22I
B4: PD-1 1.5 PD028 2001 (antibody, human IgG4 S228P, kappa)
heavy: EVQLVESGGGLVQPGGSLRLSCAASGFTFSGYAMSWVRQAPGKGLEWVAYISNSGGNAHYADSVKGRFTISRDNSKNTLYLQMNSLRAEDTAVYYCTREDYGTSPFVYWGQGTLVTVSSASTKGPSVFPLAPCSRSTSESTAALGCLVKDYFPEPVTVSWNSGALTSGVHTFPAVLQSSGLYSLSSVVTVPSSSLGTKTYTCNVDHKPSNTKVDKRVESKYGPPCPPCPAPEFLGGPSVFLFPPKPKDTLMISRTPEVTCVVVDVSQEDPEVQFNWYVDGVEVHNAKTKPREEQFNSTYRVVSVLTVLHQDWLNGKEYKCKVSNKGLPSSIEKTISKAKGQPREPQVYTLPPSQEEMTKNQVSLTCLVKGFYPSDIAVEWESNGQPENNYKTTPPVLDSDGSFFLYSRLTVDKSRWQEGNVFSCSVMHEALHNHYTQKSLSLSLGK
light: QGQSGQGFQPCLMFASSCFTSKGGGSSGGSISSGLLSGRSDNHGGGSDIQLTQSPSSLSASVGDRVTITCRASESVDAYGISFMNWFQQKPGKAPKLLIYAASNQGSGVPSRFSGSGSGTDFTLTISSMQPEDFATYYCQQSKDVPWTFGQGTKLEIKRTVAAPSVFIFPPSDEQLKSGTASVVCLLNNFYPREAKVQWKVDNALQSGNSQESVTEQDSKDSTYSLSSTLTLSKADYEKHKVYACEVTHQGLSSPVTKSFNRGEC
B5: A1.5 PD34 2001 (antibody, human IgG4 S228P, kappa)
heavy: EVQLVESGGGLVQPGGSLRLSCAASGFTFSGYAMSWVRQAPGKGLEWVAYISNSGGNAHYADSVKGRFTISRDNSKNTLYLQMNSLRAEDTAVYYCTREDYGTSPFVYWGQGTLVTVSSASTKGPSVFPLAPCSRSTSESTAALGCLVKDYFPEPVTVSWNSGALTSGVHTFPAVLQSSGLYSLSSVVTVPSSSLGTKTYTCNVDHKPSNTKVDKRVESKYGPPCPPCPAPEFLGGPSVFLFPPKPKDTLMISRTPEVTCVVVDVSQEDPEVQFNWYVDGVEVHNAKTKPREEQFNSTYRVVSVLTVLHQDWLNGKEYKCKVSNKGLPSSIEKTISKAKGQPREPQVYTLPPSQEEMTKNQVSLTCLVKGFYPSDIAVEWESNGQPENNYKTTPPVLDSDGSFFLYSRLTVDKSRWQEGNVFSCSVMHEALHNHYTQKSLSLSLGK
light: QGQSGQGTSYCSIEHYPCNTHHGGGSSGGSISSGLLSGRSDNHGGGSDIQLTQSPSSLSASVGDRVTITCRASESVDAYGISFMNWFQQKPGKAPKLLIYAASNQGSGVPSRFSGSGSGTDFTLTISSMQPEDFATYYCQQSKDVPWTFGQGTKLEIKRTVAAPSVFIFPPSDEQLKSGTASVVCLLNNFYPREAKVQWKVDNALQSGNSQESVTEQDSKDSTYSLSSTLTLSKADYEKHKVYACEVTHQGLSSPVTKSFNRGEC
notes: also called PD-1 1.5 PD034 2001; PD1 1.5 PD34 2001
B6: masking moiety NV02 (peptide)
peptide: PRVCSTDGGDYCLLP
notes: bacterial display clone; also called NV002
B7: masking moiety NV09 (peptide)
peptide: RDYCGPQSPDYCHEI
notes: bacterial display clone
B8: masking moiety NV03 (peptide)
peptide: PRPQCHHRHNCPDHP
notes: bacterial display clone
B9: masking moiety NV11 (peptide)
peptide: PRVACGEPDLCYSNT
notes: bacterial display clone
B10: masking moiety NV04 (peptide)
peptide: KCSRPAHQNPDRCSR
notes: bacterial display clone
B11: masking moiety NV10 (peptide)
peptide: PNKPCPDLQCYVTNY
notes: bacterial display clone
B12: masking moiety NV07 (peptide)
peptide: YTFGCPDRYCDRAAT
notes: bacterial display clone
B13: masking moiety NV08 (peptide)
peptide: RGCPDFNPPSHCYTA
notes: bacterial display clone
B14: masking moiety NV12 (peptide)
peptide: RGCKKHTISTLTCPD
notes: bacterial display clone
B15: masking moiety NV06 (peptide)
peptide: LPRCPDHPIKCIETK
notes: bacterial display clone
B16: masking moiety NV01 (peptide)
peptide: RYCHAANPDRFCGIY
notes: bacterial display clone; also called NV001
B17: masking moiety NV05 (peptide)
peptide: ASYRCPDYKCSHTKH
notes: bacterial display clone
B18: masking moiety PM06 (peptide)
peptide: LMCADLHYNHYNCKY
notes: bacterial display clone
B19: masking moiety PM05 (peptide)
peptide: MSCWDFSSAQGCGQH
notes: bacterial display clone
B20: masking moiety PM12 (peptide)
peptide: HCIPDFTSAAGDCMR
notes: bacterial display clone
B21: masking moiety PM03 (peptide)
peptide: FCAVMFDFLSDRCLH
notes: bacterial display clone
B22: masking moiety PM04 (peptide)
peptide: FCPPWLDYLGNKCMT
notes: bacterial display clone
B23: masking moiety PM02 (peptide)
peptide: VGSNCWTGPACALTS
notes: bacterial display clone; also called PM002
B24: masking moiety PM01 (peptide)
peptide: GCDFTSAKHNCGSGW
notes: bacterial display clone; also called PM001
B25: masking moiety PM09 (peptide)
peptide: KLTEDFSSAA
notes: bacterial display clone
B26: masking moiety PM07 (peptide)
peptide: ELCGWQSFSGVCTSE
notes: bacterial display clone
B27: masking moiety PM10 (peptide)
peptide: VGQSCFSGLVCDRQL
notes: bacterial display clone
B28: masking moiety PM08 (peptide)
peptide: WTYENCWASCQPHLE
notes: bacterial display clone
B29: masking moiety PM11 (peptide)
peptide: ISHYCFSGKSCRD
notes: bacterial display clone
B30: PD-1 1.5 PD022 2001 (antibody, human IgG4 S228P, kappa)
heavy: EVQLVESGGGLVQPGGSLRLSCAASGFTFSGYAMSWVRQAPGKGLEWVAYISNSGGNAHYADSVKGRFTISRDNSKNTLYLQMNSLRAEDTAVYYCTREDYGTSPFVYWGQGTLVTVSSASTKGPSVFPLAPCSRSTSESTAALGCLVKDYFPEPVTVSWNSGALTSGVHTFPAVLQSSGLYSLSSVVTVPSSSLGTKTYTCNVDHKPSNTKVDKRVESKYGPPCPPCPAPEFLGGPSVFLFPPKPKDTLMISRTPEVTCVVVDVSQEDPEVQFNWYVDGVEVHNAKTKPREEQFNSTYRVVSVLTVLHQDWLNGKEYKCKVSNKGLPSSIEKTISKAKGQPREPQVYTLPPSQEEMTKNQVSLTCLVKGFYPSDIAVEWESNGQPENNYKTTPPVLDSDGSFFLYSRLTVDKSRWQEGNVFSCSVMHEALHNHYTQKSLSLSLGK
light: QGQSGQGFYCTYLVSLTCHPQGGGSSGGSISSGLLSGRSDNHGGGSDIQLTQSPSSLSASVGDRVTITCRASESVDAYGISFMNWFQQKPGKAPKLLIYAASNQGSGVPSRFSGSGSGTDFTLTISSMQPEDFATYYCQQSKDVPWTFGQGTKLEIKRTVAAPSVFIFPPSDEQLKSGTASVVCLLNNFYPREAKVQWKVDNALQSGNSQESVTEQDSKDSTYSLSSTLTLSKADYEKHKVYACEVTHQGLSSPVTKSFNRGEC
B31: masking moiety MP003 (peptide)
peptide: TNIWSCQTYCDHKHK
notes: bacterial display clone; also called MP03
B32: masking moiety MP007 (peptide)
peptide: TIPRCGQHPKCKDTL
notes: bacterial display clone; also called MP07
B33: masking moiety MP009 (peptide)
peptide: LIQCTGNLDHKCKHY
notes: bacterial display clone; also called MP09
B34: masking moiety MP004 (peptide)
peptide: SDHKCKLQNCMNTKV
notes: bacterial display clone; also called MP04
B35: masking moiety MP002 (peptide)
peptide: ILCPEDPWGHKCKLP
notes: bacterial display clone; also called MP02; MP-02
B36: masking moiety MP013 (peptide)
peptide: HYTICMTHNKCKDMA
notes: bacterial display clone; also called MP13
B37: masking moiety MP010 (peptide)
peptide: IPCHHSADHKHKCTS
notes: bacterial display clone; also called MP10
B38: masking moiety MP011 (peptide)
peptide: SRQICADYNCHNKYK
notes: bacterial display clone; also called MP11
B39: masking moiety MP005 (peptide)
peptide: PGNCHPMQKEMCQFI
notes: bacterial display clone; also called MP05
B40: masking moiety MP014 (peptide)
peptide: ANSCLAVEHKCKHNY
notes: bacterial display clone; also called MP14
B41: masking moiety MP012 (peptide)
peptide: QPCNPQIDHKIKCIY
notes: bacterial display clone; also called MP12
B42: masking moiety MP006 (peptide)
peptide: VEHLCYTHNKCKHPD
notes: bacterial display clone; also called MP06
B43: masking moiety MP008 (peptide)
peptide: ACRICQDHPKTKWNS
notes: bacterial display clone; also called MP08
B44: masking moiety MP001 (peptide)
peptide: DYTYCRWVNWCLSGV
notes: bacterial display clone; also called MP01; MP-01

Numbering of substitutions follows the chain as printed.

T3 sequence (VH, as listed by the source, chain 1 of 2): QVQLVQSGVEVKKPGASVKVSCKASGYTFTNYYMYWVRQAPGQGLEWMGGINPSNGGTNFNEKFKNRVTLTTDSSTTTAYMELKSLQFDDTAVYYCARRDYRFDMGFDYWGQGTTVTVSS
T3 sequence (VL, as listed by the source, chain 2 of 2): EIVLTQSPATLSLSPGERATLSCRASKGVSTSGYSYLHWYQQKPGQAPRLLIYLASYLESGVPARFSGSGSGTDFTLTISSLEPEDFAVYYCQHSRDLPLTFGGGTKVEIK

For the first experiment, the target named is T1, human PD-1-Fc (R and D systems, Minneapolis, Minn.) (human, UniProt Q15116 25-167).
T1 construct: bought; also called hPD-1-Fc; hPD-1; not shown: Fc part of the bought fusion
T1 sequence (Q15116 25-167 limits assumed): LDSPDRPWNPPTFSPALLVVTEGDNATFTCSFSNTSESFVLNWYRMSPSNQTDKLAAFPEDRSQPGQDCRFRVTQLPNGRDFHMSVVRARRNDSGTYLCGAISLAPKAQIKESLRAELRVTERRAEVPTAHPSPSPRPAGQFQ
The experiment can be described thus: plate ELISA on human PD-1-Fc; reference A1.5. Background: ELISA stands for enzyme-linked immunosorbent assay.
B1: the “ME (masking efficiency, Kd of the activatable antibody divided by Kd of the parental antibody)” value was 20.

In the case of B2, the “ME (masking efficiency, Kd of the activatable antibody divided by Kd of the parental antibody)” value turned out to be 30.

Regarding B3, the “ME (masking efficiency, Kd of the activatable antibody divided by Kd of the parental antibody)” value stood at 20.

Consider B4, for which the “ME (masking efficiency, Kd of the activatable antibody divided by Kd of the parental antibody)” value is 25.

Take B5: the “ME (masking efficiency, Kd of the activatable antibody divided by Kd of the parental antibody)” value is 42.

The target of a further experiment is T2, nivolumab.
T2 construct: also called NV1; NV1 nivo
T2 sequence (VH, as listed by the source, chain 1 of 2): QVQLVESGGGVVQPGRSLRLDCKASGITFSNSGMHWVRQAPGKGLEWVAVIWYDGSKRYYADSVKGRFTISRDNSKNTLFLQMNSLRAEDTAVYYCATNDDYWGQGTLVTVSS
T2 sequence (VL, as listed by the source, chain 2 of 2): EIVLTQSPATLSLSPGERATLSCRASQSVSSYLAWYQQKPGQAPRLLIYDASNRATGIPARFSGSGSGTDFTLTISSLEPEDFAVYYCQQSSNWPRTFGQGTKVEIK
The experiment can be described thus: bacterial display clone with labeled NV1.
Turning to B6, the binding result was “binds”.

On to B7, for which the binding result is given as “binds”.

In the case of B8, the binding result is listed as “binds”.

As for B9, the binding result is “binds”.

As to B10, the binding result is on record as “binds”.

As for B11, the binding result is on record as “binds”.

Regarding B12, the binding result is “binds”.

Regarding B13, the binding result is given as “binds”.

Regarding B14, the binding result is given as “binds”.

On to B15, for which the binding result was “binds”.

Consider B16, for which the binding result is “binds”.

Turning to B17, the binding result is “binds”.

The next experiment concerns the target T3, pembrolizumab.
T3 construct: also called PM1; PM1 AB
The experiment in a line: bacterial display clone with labeled PM1.
For the molecule B18, the binding result is on record as “binds”.

For B19, the binding result was “binds”.

Regarding B20, the binding result is given as “binds”.

With B21, the binding result is on record as “binds”.

As for B22, the binding result is on record as “binds”.

On to B23, for which the binding result was “binds”.

On to B24, for which the binding result was “binds”.

B25: the binding result is listed as “binds”.

As for B26, the binding result is reported as “binds”.

Turning to B27, the binding result is recorded as “binds”.

Consider B28, for which the binding result is reported as “binds”.

As for B29, the binding result was “binds”.

The target in a further experiment is T1, human PD-1-Fc (R and D systems, …). The experiment in a line: plate ELISA on human PD-1-Fc; reference A1.5. This is another data set of the same source.
As for B1, the “Masking Efficiency” value turned out to be 12.

As for B30, the “Masking Efficiency” value stood at 23.

For a further experiment, the target named is T4, J43v2 mIgG2a.
T4 construct: also called J43 m2a; J43v2 m2a
T4 sequence (VH, as listed by the source, chain 1 of 2): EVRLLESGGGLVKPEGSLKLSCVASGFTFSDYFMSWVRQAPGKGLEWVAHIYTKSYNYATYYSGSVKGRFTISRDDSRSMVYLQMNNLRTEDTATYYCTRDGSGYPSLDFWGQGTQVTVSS
T4 sequence (VL, as listed by the source, chain 2 of 2): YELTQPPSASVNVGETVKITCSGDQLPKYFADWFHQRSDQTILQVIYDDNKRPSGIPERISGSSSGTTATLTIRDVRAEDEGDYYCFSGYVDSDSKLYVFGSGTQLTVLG
The experiment in a line: bacterial display clone with DyLight 650 labeled J43v2 m2a.
As to B31, the binding result is “binds”.

As to B32, the binding result was “binds”.

Turning to B33, the binding result was “binds”.

As to B34, the binding result is on record as “binds”.

As for B35, the binding result was “binds”.

Turning to B36, the binding result was “binds”.

Regarding B37, the binding result was “binds”.

For the molecule B38, the binding result was “binds”.

Turning to B39, the binding result was “binds”.

For the molecule B40, the binding result is recorded as “binds”.

Consider B41, for which the binding result is listed as “binds”.

With B42, the binding result is listed as “binds”.

Regarding B43, the binding result is reported as “binds”.

Take B44: the binding result is “binds”.

The next experiment addresses T1, human PD-1-Fc (R and D systems, …). The experiment in a line: plate ELISA on human PD-1-Fc; apparent KD.
B1: the Kd was found to be 22 nM.

As for B30, the Kd was determined as 41 nM.
